Residue numbers refer to the chain shown, from its start.

The assay concerns the target T1, TNF (UniProt P01375 77-233).
T1 construct: also called TNF-α; Tumor Necrosis Factor-α
The assay is described as follows: ELISA on solid-phase TNF (screen of the affinity maturation libraries).

T1 sequence (P01375 77-233 limits assumed): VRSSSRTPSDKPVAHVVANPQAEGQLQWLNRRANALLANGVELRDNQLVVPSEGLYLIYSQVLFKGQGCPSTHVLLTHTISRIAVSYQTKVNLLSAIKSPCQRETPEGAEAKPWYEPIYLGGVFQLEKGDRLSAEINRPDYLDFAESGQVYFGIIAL

B1: Compound 100 (other)
VL: DIQMTQSPSSLSASVGDRVTITCRASQSIDSYLHWYQQKPGKAPKLLIYSASNLETGVPSRFSGSGSGTDFTLTISSLLPEDFATYYCQQVVWRPFTFGQGTKVEIKR
notes: Domain antibody (dAb); also called anti-TNF dAb Compound 100
As for B1, the binding result is reported as “binds”.

B2: Compound 123 (other)
VL: B1 VL with S28A, L79Q
notes: Domain antibody (dAb)
With B2, the binding result was “binds”.

Values taken from patent publication US20090286962A1 (published 2009).
